In one assay the target is C5a receptor (human) (UniProt P21730). The assay can be described thus: cell-based or functional assay.
Assay [1] deals with T1, human formyl peptide receptor like-1 (FPRL-1) receptor (human, UniProt P25090 1-351).
T1 sequence (looked up): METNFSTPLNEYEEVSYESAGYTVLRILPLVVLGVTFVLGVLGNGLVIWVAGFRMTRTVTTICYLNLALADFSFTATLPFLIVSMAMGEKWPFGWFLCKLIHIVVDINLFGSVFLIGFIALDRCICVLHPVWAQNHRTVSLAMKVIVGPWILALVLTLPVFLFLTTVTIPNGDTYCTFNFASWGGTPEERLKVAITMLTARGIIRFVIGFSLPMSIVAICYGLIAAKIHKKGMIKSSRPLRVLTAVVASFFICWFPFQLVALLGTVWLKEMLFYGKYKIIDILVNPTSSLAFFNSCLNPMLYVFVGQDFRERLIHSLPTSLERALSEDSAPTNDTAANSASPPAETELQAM
The assay can be described thus: cell-based or functional assay.

The values that follow come from patent US20030166143A1 (CADUS TECHNOLOGIES, published 2003).

C5a receptor (human), sequence (P21730 whole entry): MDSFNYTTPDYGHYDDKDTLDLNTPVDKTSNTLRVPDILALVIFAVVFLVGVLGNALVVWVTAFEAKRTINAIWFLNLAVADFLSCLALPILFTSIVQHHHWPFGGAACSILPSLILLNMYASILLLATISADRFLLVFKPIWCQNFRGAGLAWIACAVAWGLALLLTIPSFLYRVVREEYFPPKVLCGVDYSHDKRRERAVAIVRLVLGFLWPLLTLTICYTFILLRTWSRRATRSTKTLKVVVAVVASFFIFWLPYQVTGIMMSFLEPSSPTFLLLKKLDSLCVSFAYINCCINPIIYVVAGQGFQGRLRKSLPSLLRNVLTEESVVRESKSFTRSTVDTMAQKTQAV

On to “native C5a ligand (from UniProt P01031 678-751)”, for which, in the assay with C5a receptor (human), the fold increase in lacZ expression (fus1:lacZ, autocrine yeast) lay within 8 to 12 fold.

In the case of SLLWLTCRPWEAM [peptide A5, Ser-Leu-Leu-Trp-Leu-Thr-Cys-Arg-Pro-Trp-Glu-Ala-Met], in assay [1], the “fold stimulation of β-galactosidase (fus1-lacZ) over background” value is 8 fold.
